# From patent US20090202532A1 (TOHOKU UNIVERSITY, published 2009)
# B1: Ex3 scFv-Fc, IgG-type bispecific antibody of OHL-Fc and 5HL-CL (bispecific antibody)
# heavy: not shown
# light: QVQLVQSGAEVKKPGASVKVSCKASGYTFTSYWMHWVRQAPGQGLEWMGNIYPGSGGTNYAEKFKNRVTMTRDTSISTAYMELSRLRSDDTAVYYCARSGGPYFFDYWGQGTLVTVSSAGGGGSGGGGSGGGGSDIVMTQSPLSLPVTPGEPASISCRSSQNIVHNNGITYLEWYLQKPGQSPQLLIYKVSDRFSGVPDRFSGSGSGTDFTLKISRVEAEDVGVYYCFQGSHIPPTFGQGTKVEIKRTVAAPSVFIFPPSDEQLKSGTASVVCLLNNFYPREAKVQWKVDNALQSGNSQESVTEQDSKDSTYSLSSTLTLSKADYEKHKVYACEVTHQGLSSPVTKSFNRGEC
# Biological target: human EGF receptor 1 (human, UniProt P00533 25-1210)
# Assay: cell-based or functional assay
binder,measurement,value
B1,"cytotoxicity, 51Cr release assay (Colo-Tc, EGFR/CHO and CHO cells)",~0.002 fold of the concentration of Ex3
